The text below walks through data of article PMC11969024, “Development of chemokine network inhibitors using combinatorial saturation mutagenesis” (Communications Biology, 2025).

First the molecules themselves.
B1: peptide HD2 (from tick evasin EVA4) / CCL1 (biotinylated, synthetic) (parent)
chain 1: EEDDYTAYAPLTCYFT
chain 2: KSMQVPFSRCCFSFAEQEIPLRAILCYRNTSSICSNEGLIFKLKRGKEACALDTVGWVQRHRKMLRHCPSKRK
B2: peptide HD2 (from tick evasin EVA4) / CCL8 (biotinylated, synthetic) (parent)
chain 1: EEDDYTAYAPLTCYFT
chain 2: QPDSVSIPITCCFNVINRKIPIQRLESYTRITNIQCPKEAVIFKTKRGKEVCADPKERWVRDSMKHLDQIFQNLKP
B3: peptide HD2 (from tick evasin EVA4) / CCL18 (biotinylated, synthetic) (parent)
chain 1: EEDDYTAYAPLTCYFT
chain 2: AQVGTNKELCCLVYTSWQIPQKFIVDYSETSPQCPKPGVILLTKRGRQICADPNKKWVQKYISDLKLNA
B4: peptide HD2 (from tick evasin EVA4) / CCL17 (biotinylated, synthetic) (parent)
chain 1: EEDDYTAYAPLTCYFT
chain 2: ARGTNVGRECCLEYFKGAIPLRKLKTWYQTSEDCSRDAIVFVTVQGRAICSDPNNKRVKNAVKYLQSLERS

In one assay the parent is B1. Particulars: with CCL1 (biotinylated, synthetic); scale: log2.
As for chain 1 EEDDYTAYAPLTCDFT [chain 1 Y14D], the enrichment was -6.76.
Same read-out and setting: as for chain 1 EEDDYTAYAPLTCEFT [chain 1 Y14E], the figure is -7.99; as for chain 1 EEDDYTAYAPLTCPFT [chain 1 Y14P], -8.08; as for chain 1 EEDDYTAYAPLTCGFT [chain 1 Y14G], -9.73.
Same read-out and setting: as for chain 1 EEDDYTAYAPLTCKFT [chain 1 Y14K], the figure is -7.4; as for chain 1 EEDDYTAYAPLTCNFT [chain 1 Y14N], -6.13.
Regarding chain 1 EEDDYTAKAPLTCYFT [chain 1 Y8K], the enrichment is -5.3.
With chain 1 EEDDYTAQAPLTCYFT [chain 1 Y8Q], the enrichment is -5.59.
Still for that read-out and setting: as for chain 1 EEDDYTATAPLTCYFT [chain 1 Y8T], the figure is -7.71.
In the case of chain 1 EEDDYTANAPLTCYFT [chain 1 Y8N], the enrichment is -7.36.
Same read-out and setting: next, chain 1 EEDDYTAGAPLTCYFT [chain 1 Y8G]: -7.94.
Turning to chain 1 EEDDYTASAPLTCYFT [chain 1 Y8S], the enrichment was -8.97.
Same read-out and setting: as for chain 1 EEDDYTARAPLTCYFT [chain 1 Y8R], the figure is -7.41; as for chain 1 EEDDYTAHAPLTCYFT [chain 1 Y8H], -6.8.

The variants in a further assay derive from B2. Particulars: with CCL8 (biotinylated, synthetic); scale: log2.
chain 1 L11P: the enrichment was -7.62.
On to chain 1 Y8G, for which the enrichment is -8.23.
The same measure, in the same setting: as for chain 1 Y8Q, the figure is -5.88.
On the same count and under the same terms, as for chain 1 Y8E, the figure is -5.7.
Same read-out and setting: next, chain 1 Y8K: -5.59; chain 1 Y8P: -7.38; chain 1 A9P: -7.32.
With chain 1 Y5R, the enrichment is -6.57.
Same read-out and setting: next, chain 1 Y5Q: -4.88; chain 1 Y5K: -5.12.
On the same count and under the same terms, as for chain 1 C13P, the figure is -9.12.
Same read-out and setting: next, chain 1 P10V: -9.9; chain 1 P10K: -6.48.
Consider chain 1 P10H, for which the enrichment is -7.47.
Take chain 1 P10F: the enrichment was -8.93.
Still for that read-out and setting: as for chain 1 P10I, the figure is -7.96; as for chain 1 P10M, -8.02; as for chain 1 E2C, -9.53.

Variants of B3 are the subject of another assay. The following applies: with CCL18 (biotinylated, synthetic); scale: log2.
In the case of chain 1 CEDDYTAYAPLTCYFT [chain 1 E1C], the enrichment is -9.95.
The same measure, in the same setting: next, chain 1 EEDDYCAYAPLTCYFT [chain 1 T6C]: -11.3; chain 1 EEDDYTAYDPLTCYFT [chain 1 A9D]: -8.43.
On the same count and under the same terms, as for chain 1 EEDDYTAYAPLTCYFC [chain 1 T16C], the figure is -7.88; as for chain 1 EEDDYTAYAELTCYFT [chain 1 P10E], -8.1.
As for chain 1 EEDDYTAYACLTCYFT [chain 1 P10C], the enrichment was -9.92.
Still for that read-out and setting: as for chain 1 EEDDYTAYAILTCYFT [chain 1 P10I], the figure is -8.64.
As for chain 1 EEDDYTAYAKLTCYFT [chain 1 P10K], the enrichment was -7.16.
Consider chain 1 EEDDYTAYARLTCYFT [chain 1 P10R], for which the enrichment was -9.28.
Still for that read-out and setting: next, chain 1 EEDDYTAYATLTCYFT [chain 1 P10T]: -8.06.
The same measure, in the same setting: as for chain 1 EEDDYTAYAMLTCYFT [chain 1 P10M], the figure is -8.7.
For chain 1 EEDDYTAYAHLTCYFT [chain 1 P10H], the enrichment is -8.15.
chain 1 EEDDYTAYASLTCYFT [chain 1 P10S]: the enrichment was -9.39.
Still for that read-out and setting: as for chain 1 EEDDYTAYAPLTCPFT [chain 1 Y14P], the figure is -9.05; as for chain 1 EEDCYTAYAPLTCYFT [chain 1 D4C], -9.44; as for chain 1 EEDDYTAYAPLTHYFT [chain 1 C13H], -8.85.
Regarding chain 1 EEDDYTAYAPLTKYFT [chain 1 C13K], the enrichment was -9.32.
The same measure, in the same setting: as for chain 1 EEDDYTAYAPLTDYFT [chain 1 C13D], the figure is -9.35; as for chain 1 EEDDYTAYAPLTSYFT [chain 1 C13S], -9.93; as for chain 1 EEDDYTAYAPLTAYFT [chain 1 C13A], -10.8.
The same measure, in the same setting: next, chain 1 EEDDYTAYAPLTEYFT [chain 1 C13E]: -10.1.
The same measure, in the same setting: next, chain 1 EEDDYTAYAPLTGYFT [chain 1 C13G]: -10.6.
For chain 1 EEDDYTAKAPLTCYFT [chain 1 Y8K], the enrichment was -6.27.
Still for that read-out and setting: next, chain 1 EEDDYTAEAPLTCYFT [chain 1 Y8E]: -6.38; chain 1 EEDDYTARAPLTCYFT [chain 1 Y8R]: -8.38.
The same measure, in the same setting: next, chain 1 EEDDKTAYAPLTCYFT [chain 1 Y5K]: -5.8; chain 1 EEDDYTCYAPLTCYFT [chain 1 A7C]: -10; chain 1 EECDYTAYAPLTCYFT [chain 1 D3C]: -10.1.

In another assay the parent is B4. The following applies: with CCL17 (biotinylated, synthetic); scale: log2.
In the case of chain 1 EEDCYTAYAPLTCYFT [chain 1 D4C], the enrichment is -9.34.
Take chain 1 EEDDKTAYAPLTCYFT [chain 1 Y5K]: the enrichment was -5.7.
Same read-out and setting: as for chain 1 EEDDTTAYAPLTCYFT [chain 1 Y5T], the figure is -7.77; as for chain 1 EEDDNTAYAPLTCYFT [chain 1 Y5N], -7.81.
The same measure, in the same setting: as for chain 1 EEDDRTAYAPLTCYFT [chain 1 Y5R], the figure is -7.15.
Same read-out and setting: as for chain 1 EEDDETAYAPLTCYFT [chain 1 Y5E], the figure is -3.59.
Turning to chain 1 EEDDQTAYAPLTCYFT [chain 1 Y5Q], the enrichment was -5.46.
Still for that read-out and setting: as for chain 1 EEDDYTAYAPLTKYFT [chain 1 C13K], the figure is -9.23; as for chain 1 EEDDYTAYAPLTDYFT [chain 1 C13D], -9.26; as for chain 1 EEDDYTAYAPLTAYFT [chain 1 C13A], -10.7.
Regarding chain 1 EEDDYTAYAPLTWYFT [chain 1 C13W], the enrichment was -9.75.
Same read-out and setting: as for chain 1 EEDDYTAYAPLTHYFT [chain 1 C13H], the figure is -8.75.
The same measure, in the same setting: as for chain 1 EEDDYTAYAPLTGYFT [chain 1 C13G], the figure is -10.5; as for chain 1 EEDDYTAYPPLTCYFT [chain 1 A9P], -7.91.
chain 1 EEDDYTAYCPLTCYFT [chain 1 A9C]: the enrichment was -10.2.
On the same count and under the same terms, next, chain 1 EEDDYTAYKPLTCYFT [chain 1 A9K]: -6.73; chain 1 EEDDYTAYIPLTCYFT [chain 1 A9I]: -10.1.
Still for that read-out and setting: as for chain 1 EEDDYTAYDPLTCYFT [chain 1 A9D], the figure is -8.33; as for chain 1 EEDDYTCYAPLTCYFT [chain 1 A7C], -9.94; as for chain 1 EEDDYTAAAPLTCYFT [chain 1 Y8A], -8.88.
Still for that read-out and setting: as for chain 1 EEDDYTAEAPLTCYFT [chain 1 Y8E], the figure is -6.29; as for chain 1 EEDDYTADAPLTCYFT [chain 1 Y8D], -7.65.
For the variant chain 1 EEDDYTAPAPLTCYFT [chain 1 Y8P], the enrichment is -7.97.
Still for that read-out and setting: next, chain 1 EEDDYTANAPLTCYFT [chain 1 Y8N]: -8.23; chain 1 EEDDYTARAPLTCYFT [chain 1 Y8R]: -8.29.
Same read-out and setting: as for chain 1 EEDDYTAQAPLTCYFT [chain 1 Y8Q], the figure is -6.46; as for chain 1 EEDDYTAMAPLTCYFT [chain 1 Y8M], -8.59.
For the variant chain 1 EEDDYTAIAPLTCYFT [chain 1 Y8I], the enrichment was -9.49.
Still for that read-out and setting: as for chain 1 EEDDYTAGAPLTCYFT [chain 1 Y8G], the figure is -8.81; as for chain 1 EEDDYTAKAPLTCYFT [chain 1 Y8K], -6.17.
Same read-out and setting: as for chain 1 EEDDYTAYANLTCYFT [chain 1 P10N], the figure is -8.12; as for chain 1 EEDDYTAYAVLTCYFT [chain 1 P10V], -10.5; as for chain 1 EEDDYTAYAHLTCYFT [chain 1 P10H], -8.06.
The same measure, in the same setting: next, chain 1 EEDDYTAYAILTCYFT [chain 1 P10I]: -8.54.
As for chain 1 EEDDYTAYAMLTCYFT [chain 1 P10M], the enrichment was -8.6.
Same read-out and setting: next, chain 1 EEDDYTAYARLTCYFT [chain 1 P10R]: -9.18.
Still for that read-out and setting: next, chain 1 EEDDYTAYAKLTCYFT [chain 1 P10K]: -7.07.
In the case of chain 1 EEDDYTAYACLTCYFT [chain 1 P10C], the enrichment was -9.82.
Same read-out and setting: as for chain 1 EEDDYTAYASLTCYFT [chain 1 P10S], the figure is -9.3; as for chain 1 EEDDYCAYAPLTCYFT [chain 1 T6C], -11.2; as for chain 1 CEDDYTAYAPLTCYFT [chain 1 E1C], -9.85.
Same read-out and setting: next, chain 1 EECDYTAYAPLTCYFT [chain 1 D3C]: -10.
